Results taken from patent US20230348614A1 (VISTERRA, published 2023).

Experiments:
[1] = biological target: T1, R117A (Homo sapiens, UniProt P18827); test: alanine scan: flow cytometry on HEK-293T cells expressing the mutant clone, 4320 Fab 0.50 ug/mL, normalised to WT CD138; Range %WT Binding 13; Normalized 4320 vs. BB4 14.8
T1 construct: clone of the alanine scanning library on HEK-293T cells; m17 with one substitution; also called CD138 R117A
T1 sequence (CD138 (SDC1), full length, point mutant, looked up): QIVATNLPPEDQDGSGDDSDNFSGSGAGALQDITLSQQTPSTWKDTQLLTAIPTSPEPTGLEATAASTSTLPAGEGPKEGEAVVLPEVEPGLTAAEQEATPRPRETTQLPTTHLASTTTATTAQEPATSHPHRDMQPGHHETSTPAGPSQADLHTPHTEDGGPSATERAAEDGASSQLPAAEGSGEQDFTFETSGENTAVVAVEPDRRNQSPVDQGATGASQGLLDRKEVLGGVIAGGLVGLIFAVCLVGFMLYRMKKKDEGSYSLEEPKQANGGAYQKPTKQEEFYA
Description: (§1) Serial dilutions of each MAb were tested for immunoreactivity against cells expressing target protein (WT) or vector alone. Validation of target expression and optimization of detection and binding of anti-CD138 antibodies both by flow cytometry was completed in replicate (N=4). The optimal screening concentration for each MAb was determined based on the raw signal values and signal-to-background calculations specifically optimized for each test article. Optimized parameters included the use of 10% goat serum as blocking reagent. Primary antibody staining was for 60 minutes at 25° C. Wash buffer include phosphate buffered saline (divalent metal ion free), pH 7.4. […] Secondary antibodies were diluted 1:400 and incubated for 30 minutes at 25° C.
(§2) Library screens of very-high-affinity mAbs can fail to yield critical residues for antibody binding due to deficiencies of such an assay to detect and differentiate critical vs. less critical binding based on affinity and quantification of cell binding. One common approach in the literature is the use of monovalent antibody derived fragments such as Fab usually weakens binding sufficiently to allow identification of critical residues for binding. […] Binding of each test Ab to each mutant clone in the alanine scanning library was determined, in duplicate, and likewise evaluated by flow cytometry.

[2] = biological target: S151A (Homo sapiens) (UniProt P18827); test: alanine scan: flow cytometry on HEK-293T cells expressing the mutant clone, 4320 Fab 0.50 ug/mL, normalised to WT CD138; Range %WT Binding 6; Normalized 4320 vs. BB4 24.5
[3] = biological target: T2, P112A (Homo sapiens, UniProt P18827); test: alanine scan: flow cytometry on HEK-293T cells expressing the mutant clone, 4320 Fab 0.50 ug/mL, normalised to WT CD138; Range %WT Binding 9; Normalized 4320 vs. BB4 21.6
T2 construct: clone of the alanine scanning library on HEK-293T cells; m17 with one substitution; also called CD138 P112A
T2 sequence (CD138 (SDC1), full length, point mutant, looked up): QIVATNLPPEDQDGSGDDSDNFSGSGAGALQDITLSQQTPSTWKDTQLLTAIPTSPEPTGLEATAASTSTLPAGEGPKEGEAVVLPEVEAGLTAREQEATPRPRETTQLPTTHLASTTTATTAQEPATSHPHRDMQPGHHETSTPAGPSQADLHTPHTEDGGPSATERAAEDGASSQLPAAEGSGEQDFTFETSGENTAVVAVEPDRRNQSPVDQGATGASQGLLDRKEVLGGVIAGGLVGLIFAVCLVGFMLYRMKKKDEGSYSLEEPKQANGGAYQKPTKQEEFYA
Description: as §1, §2

[4] = biological target: T3, E111A (Homo sapiens, UniProt P18827); test: alanine scan: flow cytometry on HEK-293T cells expressing the mutant clone, 4320 Fab 0.50 ug/mL, normalised to WT CD138; Range %WT Binding 8; Normalized 4320 vs. BB4 10.4
T3 construct: clone of the alanine scanning library on HEK-293T cells; m17 with one substitution; also called CD138 E111A
T3 sequence (CD138 (SDC1), full length, point mutant, looked up): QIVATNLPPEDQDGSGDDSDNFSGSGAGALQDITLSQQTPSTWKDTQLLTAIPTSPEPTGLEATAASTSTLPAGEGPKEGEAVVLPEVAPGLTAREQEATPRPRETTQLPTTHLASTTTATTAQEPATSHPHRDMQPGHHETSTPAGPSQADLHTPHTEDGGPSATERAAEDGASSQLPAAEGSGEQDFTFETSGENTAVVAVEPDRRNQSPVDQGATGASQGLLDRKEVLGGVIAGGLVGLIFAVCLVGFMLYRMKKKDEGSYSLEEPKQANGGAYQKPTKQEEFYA
Description: as §1, §2

[5] = biological target: T4, P167A (Homo sapiens, UniProt P18827); test: alanine scan: flow cytometry on HEK-293T cells expressing the mutant clone, 4320 Fab 0.50 ug/mL, normalised to WT CD138; Range %WT Binding 46; Normalized 4320 vs. BB4 50.9
T4 construct: clone of the alanine scanning library on HEK-293T cells; m17 with one substitution; also called CD138 P167A
T4 sequence (CD138 (SDC1), full length, point mutant, looked up): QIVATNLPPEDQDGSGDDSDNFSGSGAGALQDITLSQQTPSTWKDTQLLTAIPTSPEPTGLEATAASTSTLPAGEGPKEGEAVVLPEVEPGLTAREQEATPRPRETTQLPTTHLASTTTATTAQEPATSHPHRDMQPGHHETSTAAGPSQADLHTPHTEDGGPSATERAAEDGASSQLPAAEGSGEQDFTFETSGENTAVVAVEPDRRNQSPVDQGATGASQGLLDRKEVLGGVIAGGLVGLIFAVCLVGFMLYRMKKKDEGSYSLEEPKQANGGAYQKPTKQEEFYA
Description: as §1, §2

[6] = biological target: T5, V110A (Homo sapiens, UniProt P18827); test: alanine scan: flow cytometry on HEK-293T cells expressing the mutant clone, 4320 Fab 0.50 ug/mL, normalised to WT CD138; Range %WT Binding 2; Normalized 4320 vs. BB4 28.3
T5 construct: clone of the alanine scanning library on HEK-293T cells; m17 with one substitution; also called CD138 V110A
T5 sequence (CD138 (SDC1), full length, point mutant, looked up): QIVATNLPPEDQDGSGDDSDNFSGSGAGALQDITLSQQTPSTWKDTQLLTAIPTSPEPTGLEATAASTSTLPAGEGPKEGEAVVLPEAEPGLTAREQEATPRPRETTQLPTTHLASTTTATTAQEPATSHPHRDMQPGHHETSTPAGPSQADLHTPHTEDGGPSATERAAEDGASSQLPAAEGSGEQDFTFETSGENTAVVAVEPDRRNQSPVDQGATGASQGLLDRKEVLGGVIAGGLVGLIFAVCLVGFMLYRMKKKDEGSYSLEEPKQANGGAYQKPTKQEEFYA
Description: as §1, §2

Mean %WT Binding [1]: 14.4 %WT
Mean %WT Binding [2]: 8.9 %WT
Mean %WT Binding [3]: 22.6 %WT
Mean %WT Binding [4]: 13 %WT
Mean %WT Binding [5]: 56.4 %WT
Mean %WT Binding [6]: 21.9 %WT
B1: Fab fragment of mAb 4320 (Fab, V domains shown)
VH: QVQLVQSGAEVKKPGASVKVSCKASGYSFSSYYMHWVRQAPGQGLEWMGTIHPSDSTTNYNQKFQGRVTMTVDTSTRTAYMELSSLRSEDTAVYYCANFVYWGQGTTVTVSS
VL: DIVMTQTPLSLSVTPGQPASISCKSSKSLLYKDGKTYLNWFLQKPGQSPQLLIYVVSTRASGVPDRFSGSGSGTDFTLKISRVEAEDVGVYYCQQLVEYPYTFGQGTKLEIKR
modifications: N-terminal Q1 observed as pyroglutamic acid (PCA) in the 138-2-5 complex
notes: In the crystal structures heavy chain residues 1-213 were traced; also called Fab4320
